Measurements from patent US20140087995A1 (published 2014).
Numbered stars: 1 amine (or outer) side, 2 acyl side, 3 side chain; on linkers, the order of the positions; unused ones are H or OH. Bridge positions count the residues as written; N and C are the ends. Side chains are listed from the residue outwards. Ends that are not written are not given here. * marks the point of attachment. C20 diacid = O=C(O)CCCCCCCCCCCCCCCCCCC(=O)*; γGlu = O=C(O)[C@H](CCC(=O)[*:2])N[*:1]; AEEA = NCCOCCOCC(=O)O

T1: rat calcitonin receptor (rat, UniProt P32214 25-516)
T1 construct: whole, on cells; In cell membranes prepared from transiently transfected BHK tk'ts 13 cells (Assay VIII); also called rCTR; rat calcitonin (a) receptor
T1 sequence (looked up): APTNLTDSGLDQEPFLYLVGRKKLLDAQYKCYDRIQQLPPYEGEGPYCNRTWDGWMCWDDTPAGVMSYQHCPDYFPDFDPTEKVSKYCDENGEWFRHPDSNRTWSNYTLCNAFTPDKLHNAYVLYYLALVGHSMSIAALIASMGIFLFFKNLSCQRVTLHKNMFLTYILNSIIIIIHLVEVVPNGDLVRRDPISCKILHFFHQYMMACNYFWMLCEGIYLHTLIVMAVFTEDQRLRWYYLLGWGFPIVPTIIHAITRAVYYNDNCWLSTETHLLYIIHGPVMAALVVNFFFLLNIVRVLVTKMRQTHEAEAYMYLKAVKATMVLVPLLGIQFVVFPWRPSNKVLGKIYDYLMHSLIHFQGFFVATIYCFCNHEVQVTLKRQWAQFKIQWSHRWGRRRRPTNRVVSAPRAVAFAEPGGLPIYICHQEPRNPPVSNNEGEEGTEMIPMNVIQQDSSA

T2: human calcitonin receptor (human, UniProt P30988 25-474)
T2 construct: whole, on cells; Cell membranes from the stably transfected cell line (Assay VII); also called hCTR; hCT
T2 sequence (looked up): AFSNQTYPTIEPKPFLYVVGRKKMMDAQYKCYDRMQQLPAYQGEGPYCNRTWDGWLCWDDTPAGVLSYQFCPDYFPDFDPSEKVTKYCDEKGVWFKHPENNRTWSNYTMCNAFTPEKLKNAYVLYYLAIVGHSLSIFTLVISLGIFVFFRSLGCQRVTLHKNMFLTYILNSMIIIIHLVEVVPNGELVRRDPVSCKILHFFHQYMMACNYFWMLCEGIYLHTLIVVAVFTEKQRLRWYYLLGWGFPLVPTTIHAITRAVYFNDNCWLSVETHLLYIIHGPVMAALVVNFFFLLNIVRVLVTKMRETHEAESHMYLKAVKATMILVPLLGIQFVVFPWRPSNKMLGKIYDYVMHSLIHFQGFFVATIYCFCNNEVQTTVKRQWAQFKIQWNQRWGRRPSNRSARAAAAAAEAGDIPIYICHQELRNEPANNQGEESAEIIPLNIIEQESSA

T3: rat amylin receptor (rat calcitonin receptor + rat RAMP 3) (rat, UniProt P32214 25-516; Q9JJ73 23-147)
T3 construct: whole, on cells; Receptor complex in cell membranes prepared from transiently transfected BHK tk'ts 13 cells (Assay VI); also called rAmylin-R; rat amylin 3(a) receptor
T3 sequence (looked up) 1: T1 sequence (looked up)
T3 sequence (looked up) 2: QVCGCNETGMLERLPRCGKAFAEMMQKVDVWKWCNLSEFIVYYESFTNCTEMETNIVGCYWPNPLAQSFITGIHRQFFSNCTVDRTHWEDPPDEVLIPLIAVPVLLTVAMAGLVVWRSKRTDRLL

T4: rat calcitonin receptor (rat, UniProt P32214 25-516)
T4 construct: whole, on cells; Used as membranes prepared from the transfected cells; also called rCTR; rCT
T4 sequence (looked up): T1 sequence (looked up)

T5: human calcitonin receptor (human, UniProt P30988 25-474)
T5 construct: whole, on cells; Used as membranes prepared from the transfected cells; also called hCTR; hCT
T5 sequence (looked up): T2 sequence (looked up)

T6: rat amylin receptor (rat calcitonin receptor with rat RAMP 3) (rat, UniProt P32214 25-516; Q9JJ73 23-147)
T6 construct: whole, on cells; Used as membranes prepared from the transfected cells; also called rAmylin-R; rAmylin
T6 sequence (looked up) 1: T1 sequence (looked up)
T6 sequence (looked up) 2: T3 sequence (looked up) 2

B1: N^ε1-[(4S)-4-carboxy-4-[[(4S)-4-carboxy-4-(19-carboxynonadecanoylamino)butanoyl]amino]butanoyl]-[Glu14,Arg17,Pro21,Pro27,Pro34,Phe37]-h-amylin (peptide)
peptide: K([γGlu-γGlu-C20 diacid])CNTATCATQRLAEFLRHSSPNFGAIPSSTNVGPNTF-NH2
modifications: disulfide 2-7; N-terminus assumed
SMILES: CC[C@H](C)[C@H](NC(=O)[C@H](C)NC(=O)CNC(=O)[C@H](Cc1ccccc1)NC(=O)[C@H](CC(N)=O)NC(=O)[C@@H]1CCCN1C(=O)[C@H](CO)NC(=O)[C@H](CO)NC(=O)[C@H](Cc1c[nH]cn1)NC(=O)[C@H](CCCNC(=N)N)NC(=O)[C@H](CC(C)C)NC(=O)[C@H](Cc1ccccc1)NC(=O)[C@H](CCC(=O)O)NC(=O)[C@H](C)NC(=O)[C@H](CC(C)C)NC(=O)[C@H](CCCNC(=N)N)NC(=O)[C@H](CCC(N)=O)NC(=O)[C@@H](NC(=O)[C@H](C)NC(=O)[C@@H]1CSSC[C@H](NC(=O)[C@@H](N)CCCCNC(=O)CC[C@H](NC(=O)CC[C@H](NC(=O)CCCCCCCCCCCCCCCCCCC(=O)O)C(=O)O)C(=O)O)C(=O)N[C@@H](CC(N)=O)C(=O)N[C@@H]([C@@H](C)O)C(=O)N[C@@H](C)C(=O)N[C@@H]([C@@H](C)O)C(=O)N1)[C@@H](C)O)C(=O)N1CCC[C@H]1C(=O)N[C@@H](CO)C(=O)N[C@@H](CO)C(=O)N[C@H](C(=O)N[C@@H](CC(N)=O)C(=O)N[C@H](C(=O)NCC(=O)N1CCC[C@H]1C(=O)N[C@@H](CC(N)=O)C(=O)N[C@H](C(=O)N[C@@H](Cc1ccccc1)C(N)=O)[C@@H](C)O)C(C)C)[C@@H](C)O
B2: N^ε1-[(4S)-4-carboxy-4-[[(4S)-4-carboxy-4-(19-carboxynonadecanoylamino)butanoyl]amino]butanoyl]-[Glu14,Arg17,Pro23,Pro34,Glu35]-h-amylin (peptide)
peptide: K([γGlu-γGlu-C20 diacid])CNTATCATQRLAEFLRHSSNNPGAILSSTNVGPETY-NH2
modifications: disulfide 2-7
B3: N^ε1-[2-[2-[2-[[2-[2-[2-[[(4S)-4-carboxy-4-(19-carboxynonadecanoylamino)butanoyl]amino]ethoxy]ethoxy]acetyl]amino]ethoxy]ethoxy]acetyl]-[Arg17,Pro21,Pro27,Arg34 … (peptide)
peptide: K([AEEA-AEEA-γGlu-C20 diacid])CNTATCATQRLANFLRHSSPNFGAIPSSTNVGRNTY-NH2
modifications: disulfide 2-7; N-terminus assumed
SMILES: CC[C@H](C)[C@H](NC(=O)[C@H](C)NC(=O)CNC(=O)[C@H](Cc1ccccc1)NC(=O)[C@H](CC(N)=O)NC(=O)[C@@H]1CCCN1C(=O)[C@H](CO)NC(=O)[C@H](CO)NC(=O)[C@H](Cc1c[nH]cn1)NC(=O)[C@H](CCCNC(=N)N)NC(=O)[C@H](CC(C)C)NC(=O)[C@H](Cc1ccccc1)NC(=O)[C@H](CC(N)=O)NC(=O)[C@H](C)NC(=O)[C@H](CC(C)C)NC(=O)[C@H](CCCNC(=N)N)NC(=O)[C@H](CCC(N)=O)NC(=O)[C@@H](NC(=O)[C@H](C)NC(=O)[C@@H]1CSSC[C@H](NC(=O)[C@@H](N)CCCCNC(=O)COCCOCCNC(=O)COCCOCCNC(=O)CC[C@H](NC(=O)CCCCCCCCCCCCCCCCCCC(=O)O)C(=O)O)C(=O)N[C@@H](CC(N)=O)C(=O)N[C@@H]([C@@H](C)O)C(=O)N[C@@H](C)C(=O)N[C@@H]([C@@H](C)O)C(=O)N1)[C@@H](C)O)C(=O)N1CCC[C@H]1C(=O)N[C@@H](CO)C(=O)N[C@@H](CO)C(=O)N[C@H](C(=O)N[C@@H](CC(N)=O)C(=O)N[C@H](C(=O)NCC(=O)N[C@@H](CCCNC(=N)N)C(=O)N[C@@H](CC(N)=O)C(=O)N[C@H](C(=O)N[C@@H](Cc1ccc(O)cc1)C(N)=O)[C@@H](C)O)C(C)C)[C@@H](C)O
notes: Analogue of human amylin; disulfide and C-terminal amide as told for h-amylin; also called compound 95
B4: N^ε1-[2-[2-[2-[[2-[2-[2-[[(4S)-4-carboxy-4-(19-carboxynonadecanoylamino)butanoyl]amino]ethoxy]ethoxy]acetyl]amino]ethoxy]ethoxy]acetyl]-[Arg17,Pro21,Pro27,His34 … (peptide)
peptide: K([AEEA-AEEA-γGlu-C20 diacid])CNTATCATQRLANFLRHSSPNFGAIPSSTNVGHNTY-NH2
modifications: disulfide 2-7; N-terminus assumed
SMILES: CC[C@H](C)[C@H](NC(=O)[C@H](C)NC(=O)CNC(=O)[C@H](Cc1ccccc1)NC(=O)[C@H](CC(N)=O)NC(=O)[C@@H]1CCCN1C(=O)[C@H](CO)NC(=O)[C@H](CO)NC(=O)[C@H](Cc1c[nH]cn1)NC(=O)[C@H](CCCNC(=N)N)NC(=O)[C@H](CC(C)C)NC(=O)[C@H](Cc1ccccc1)NC(=O)[C@H](CC(N)=O)NC(=O)[C@H](C)NC(=O)[C@H](CC(C)C)NC(=O)[C@H](CCCNC(=N)N)NC(=O)[C@H](CCC(N)=O)NC(=O)[C@@H](NC(=O)[C@H](C)NC(=O)[C@@H]1CSSC[C@H](NC(=O)[C@@H](N)CCCCNC(=O)COCCOCCNC(=O)COCCOCCNC(=O)CC[C@H](NC(=O)CCCCCCCCCCCCCCCCCCC(=O)O)C(=O)O)C(=O)N[C@@H](CC(N)=O)C(=O)N[C@@H]([C@@H](C)O)C(=O)N[C@@H](C)C(=O)N[C@@H]([C@@H](C)O)C(=O)N1)[C@@H](C)O)C(=O)N1CCC[C@H]1C(=O)N[C@@H](CO)C(=O)N[C@@H](CO)C(=O)N[C@H](C(=O)N[C@@H](CC(N)=O)C(=O)N[C@H](C(=O)NCC(=O)N[C@@H](Cc1c[nH]cn1)C(=O)N[C@@H](CC(N)=O)C(=O)N[C@H](C(=O)N[C@@H](Cc1ccc(O)cc1)C(N)=O)[C@@H](C)O)C(C)C)[C@@H](C)O
notes: Analogue of human amylin; disulfide and C-terminal amide as told for h-amylin; also called compound 97

What was measured:
[1] = target: T1, rat calcitonin receptor; assay: ratio of binding IC50s: rat calcitonin receptor (Assay VIII) over rat amylin receptor (Assay VI)
[2] = target: T2, human calcitonin receptor; assay: ratio of binding IC50s: human calcitonin receptor (Assay VII) over human amylin receptor (Assay V)
Method: The resulting pellet was resuspended, homogenized and centrifuged (20.000 rpm, 15 min) in a buffer containing 20 mM Na-HEPES and 0.1 mM EDTA (pH 7.4, buffer 2). The resulting pellet was resuspended in buffer 2 and protein concentration was measured (BCA protein Assay, Pierce). The homogenate was kept cold during the whole procedure. The membranes were kept at −80° C. until use. The assay was performed in a 384 well Optiplate (PerkinElmer) in a total volume of 40 ul. Membranes were mixed with SPA beads. Final concentration of membranes 35 ng/μL final and SPA beads was 0.05 mg/well. Test-compounds were dissolved in DMSO and further diluted in assay buffer (50 mM Hepes, pH 7.4, 1 mM CaCl2, 5 mM MgCl₂, 0.1% OA and 0.02% Tween20). […] The final mixture was incubated with shaking at 400 rpm for 120 min at 25° C. prior to centrifugation (1500 rpm, 10 min). Samples were analyzed on TopCounter™ (Packard). The IC₅₀ was calculated using (one site binding competition analysis) GraphPad Prism5 as a measure of receptor affinity.
Membranes were prepared in the following way; the cells were rinsed with PBS and incubated with Versene for approximately 5 min before harvesting. The cells were flushed with PBS and the cell-suspension was centrifuged for 5 min at 1000 rpm. Cells were homogenized (Ultrathurrax) in a buffer containing 20 mM Na-HEPES and 10 mM EDTA (pH 7.4) and centrifuged at 20.000 rpm for 15 min. The resulting pellet was resuspended, homogenized and centrifuged (20.000 rpm, 15 min) in a buffer containing 20 mM Na-HEPES and 0.1 mM EDTA (pH 7.4, buffer 2). The resulting pellet was resuspended in buffer 2 and protein concentration was measured (BCA protein Assay, Pierce). The homogenate was kept cold during the whole procedure. The membranes were kept at −80° C. until use. Assay was performed in a 384 well Optiplate (PerkinElmer) in a total volume of 40 ul. Membranes were mixed with SPA beads.

[3] = target: T1, rat calcitonin receptor; assay: SPA competition binding, displacement of 125I-Calcitonin from membranes of BHK tk'ts 13 cells with rat calcitonin receptor (Assay VIII)
[4] = target: T3, rat amylin receptor (rat calcitonin …); assay: SPA competition binding, displacement of 125I-rat amylin from membranes of BHK tk'ts 13 cells with rat calcitonin receptor + rat RAMP 3 (Assay VI)
[5] = target: T4, rat calcitonin receptor; assay: SPA competition with 125I-calcitonin, membranes with rat calcitonin receptor (Assay VIII)
[6] = target: T4, rat calcitonin receptor; assay: ratio of binding IC50 at rat calcitonin receptor to IC50 at rat amylin receptor (reference)
[7] = target: T5, human calcitonin receptor; assay: ratio of binding IC50 at human calcitonin receptor to IC50 at human amylin receptor (reference)
Outline: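 Competition binding by SPA with cell membranes (35 ng/μL) and SPA beads in 50 mM Hepes pH 7.4 with 1 mM CaCl2, 5 mM MgCl2, 0.1% OA and 0.02% Tween20. Incubated 120 min at 25 °C with shaking, then counted.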

[8] = target: T6, rat amylin receptor (rat calcitonin …); assay: SPA competition with 125I-rat amylin, membranes with rat calcitonin receptor + rat RAMP3 (Assay VI)

| Binder | Ratio rCT/rAmylin binding [1] | Ratio hCT/hAmylin binding [2] | IC50 [3] [nM] | IC50 [4] [nM] | IC50 [5] [nM] | Ratio rCT/rAmylin binding [6] | Ratio hCT/hAmylin binding [7] | IC50 [8] [nM] |
| --- | --- | --- | --- | --- | --- | --- | --- | --- |
| B1 | 114 | 18 | 23.4 | 0.205 | – | – | – | – |
| B2 | 132 | 7.8 | 86.8 | 0.659 | – | – | – | – |
| B3 | – | – | – | – | 388 | 71.3 | 63.4 | 5.45 |
| B4 | – | – | – | – | 159 | 71.1 | 104 | 2.24 |
